The source of these data is patent US20090203886A1 (OSAKA UNIVERSITY, published 2009).

The target in assay [1] is T1, human CD20 antigen (human, UniProt P11836 1-297).
T1 sequence (looked up): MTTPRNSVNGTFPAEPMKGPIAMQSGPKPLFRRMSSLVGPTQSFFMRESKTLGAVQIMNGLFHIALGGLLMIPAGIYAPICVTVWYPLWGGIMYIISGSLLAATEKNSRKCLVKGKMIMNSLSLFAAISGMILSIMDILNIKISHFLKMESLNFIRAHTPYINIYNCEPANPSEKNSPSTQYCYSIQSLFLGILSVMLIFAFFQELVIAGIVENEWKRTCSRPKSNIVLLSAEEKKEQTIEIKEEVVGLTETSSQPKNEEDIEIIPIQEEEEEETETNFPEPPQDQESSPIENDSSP
The assay can be described thus: cell-based or functional assay.

Assay [2] concerns the target T1, human CD20 antigen. As to the kind of experiment: Scatchard analysis on Raji cells, FITC secondary antibody fluorescence (Example 2). As to the method: The mixture was shaken for one hour at room temperature while shielding against light and primary antibodies binding to cells were detected. After the reaction, the mixture was centrifuged at 3,000 rpm for three minutes and the cells were recovered. The cells were suspended in 200 μl of PBS to remove unreacted FITC-labeled anti murine IgG (H&L) antibody remaining on the cell surface and then centrifuged at 3,000 rpm for three minutes to remove the supernatant. This operation was repeated twice.
After the detection step, the image was digitized using image analysis software Image Quant (Amersham Bioscience) and analyzed using Excel (Microsoft). Background values for the plate, the PBS solution and FITC-labeled secondary antibody displaying non-specific binding to cells were determined. Then a value for the reaction only between the cells and the FITC-labeled secondary antibodies was obtained. Average values for those four points were subtracted from the fluorescent intensity value for each sample in order to obtain the amount of fluorescence of cell-conjugated FITC-labeled secondary antibody. A standard curve was prepared by measuring the amount of fluorescence at various concentrations of control cell-conjugated FITC-labeled secondary antibodies. Thus the amount of cell-conjugated secondary antibody (number of moles or weight) was calculated. The amount of cell-conjugated primary antibody was calculated assuming that each primary antibody and the FITC-labeled secondary antibody react at a ratio of 1:2. Primary antibody in suspension was calculated by subtracting the cell-conjugated amount from the added amount. When calculating the antibody concentration as a molar concentration, the molecular weight of the monoclonal was taken to be 150,000.
Scatchard analysis was used to calculate the antigen number and dissociation constant (Kd value) refer to Scatchard, G.; Ann. N.Y. Acad.

Assay [3] concerns the target T1, human CD20 antigen. The assay can be described thus: cell-based or functional assay. The source holds these as a separate data set.
Assay [4] deals with T1, human CD20 antigen. The assay can be described thus: cell-based or functional assay. This is another data set of the same source.

Substitutions are numbered along the chain they refer to.

The term Kd denotes the free concentration of one partner at which half of the binding sites on the other are occupied at equilibrium, for simple one-to-one binding. A low value points to tighter binding. In the assay with human CD20 antigen [1], “2B8 murine anti CD20 antibody (positive control)” registered a Cell growth inhibiting test on Raji cells, Absorption (492 nm) (absorbance 492 nm) of 1.76. Besides, the Kd with human CD20 antigen [2] stood at 6790 pM.

B1: 1K1791 murine anti CD20 monoclonal antibody (antibody, V domains shown)
VH: QIQLVQSGPELKKPGETVKISCKASGYTFTNFGVNWVKQAPGKGLKWMGWINTYTGEPSYADDFKGRFAFSLEASANTAYLQINNLKNDDMSTYFCTRRTNYYGTSYYYAMDYWGQGTSVTVSS
VL: STVMTQTPKFLLVSAGDRVTITCKASQSVSNDVAWYQQKPGQSPKVLIYFASNRYTGVPDRFTGSGYGTDFTFTINTVQAEDLAVYFCQQDYSSPLTFGAGTKLELK
notes: also called m1791
As to B1, the “Cell growth inhibiting test on Raji cells, Absorption (492 nm)” value with human CD20 antigen [3] is 1.79 absorbance 492 nm. Moreover, the “Capacity to Induce Apoptosis (Raji cells)” value (shortened to “Capacity to Induce Apoptosis”) with human CD20 antigen [4] stood at 160. This molecule also displayed a Kd with human CD20 antigen [2] of 1700 pM.

B2: 1K1782 murine anti CD20 monoclonal antibody (antibody, V domains shown)
VH: QVQLQQSGAELAKPGASVKMSCKASGYTFTSYWMHWVKQRPGQGLEWIGYITPSTGYTDYNKKFKDKATLTADRSSSTAYMHLSSLTSEDSAVYYCARSGPYFDVWGAGTTVTVSS
VL: DILLTQSPAILFVSPGERVSLSCRASQNIGTSIHWYQQRTNGSPRLLIKYASESFSGIPSRFSGSGSGTDFTLSINSVESEDIADYYCQQSNSWPFTFGSGTKLEIK
notes: also called m1782
With B2, the “Cell growth inhibiting test on Raji cells, Absorption (492 nm)” value in the assay with human CD20 antigen [3] was 2.6 absorbance 492 nm. In addition, the “Capacity to Induce Apoptosis” value in the assay with human CD20 antigen [4] was determined as 30. The same molecule had a Kd with human CD20 antigen [2] of 400 pM.

B3: 1K1228 murine anti CD20 monoclonal antibody (antibody, mouse IgG1, V domains shown)
VH: QVQLQQPGAELVKPGASVKVSCKASGFTFTSYNLHWVKQTPGQGLVWIGAIYPGNGDTSYNQKFRGKATLTADISSSTAYMQLSSLTSEDSAVYYCARYYYGYDAMDYWGQGTSVTVSS
VL: EIILTQSPTTMAASPGEKITITCSASSSISSYYLRWYQQKPGFSPKVLIYRTSNLASGVPARFSGSGSGTSYSLTIGTMEAEDVATYYCQQGNTVPLTFGSGTKLEIK
notes: also called m1228
Turning to B3, the “Capacity to Induce Apoptosis” value with human CD20 antigen [4] was determined as 30. Moreover, in the assay with human CD20 antigen [2], the affinity, expressed as Kd, was 260 pM.

B4: 1K1422 murine anti CD20 monoclonal antibody (antibody, V domains shown)
VH: QVQLQQPGAELVKPGASVKMSCRASGYTFTNYNMHWIKQTPGQGLEWIGAIYPGSGDTSYNRKFKGKATLTADTSSSTAYMQFSSLTSADSAVYYCARFTYYYGGTYGAMDYWGQGTSVTVSL
VL: QIVLTQSPPIMSASLGEEITLTCSASSRVSYMLWYQQKSGTSPKLLIYSTSNLASGVPSRFSGSGSGTFYSLTISSVEAEDAADYYCHQWTSNPCTFGGGTKLEIK
notes: also called m1422
Regarding B4, the “Cell growth inhibiting test on Raji cells, Absorption (492 nm)” value in the assay with human CD20 antigen [3] was 1.77 absorbance 492 nm. The “Capacity to Induce Apoptosis” value in the assay with human CD20 antigen [4] amounted to 130. This molecule also had a dissociation constant Kd in the assay with human CD20 antigen [2] of 3390 pM.

B5: 1K1712 murine anti CD20 monoclonal antibody (antibody, V domains shown)
VH: QVQLQQPGAELVKPGASVKMSCKASGFTFTSYNLHWVKQTPGQGLEWIGAIYPGSGDTSYNQQFKGKATLTADKSSNTAYMQLNSLTSEDSAVYCCARSAMISTGNWYFDYWGQGTTLTVSS
VL: QIVLSQSPAILSASPGEKVTMTCRASSSVSYMDWYQQKPGSSPKPWIYATSNLASGVPARFSGSGSGTSYSLTISRVEAEDTATYYCQQWTFNPPTFGSGTKLEIK
notes: also called m1712
For the molecule B5, the “Cell growth inhibiting test on Raji cells, Absorption (492 nm)” value with human CD20 antigen [3] amounted to 2.33 absorbance 492 nm. Also, in the assay with human CD20 antigen [4], the “Capacity to Induce Apoptosis” value stood at 50. For the same molecule, the Kd with human CD20 antigen [2] is 840 pM.

B6: 1K1736 murine anti CD20 monoclonal antibody (antibody, V domains shown)
VH: QVQLQQPGAELVKPGASVKMSCKASGYTFTTYNLHWVKQTPGQGLEWIGGIYPGNGDTSYNQKFKVKATLTADKSSNTAYMQLSSLTSEDSAVYYCARWIYYGNYEGTLDYWGQGTSVTVSS
VL: B5 VL with A13S, D33L, K44E, S64G, T82A, S99G
Regarding B6, in the assay with human CD20 antigen [3], the “Cell growth inhibiting test on Raji cells, Absorption (492 nm)” value is 2.24 absorbance 492 nm. Moreover, in the assay with human CD20 antigen [4], the “Capacity to Induce Apoptosis” value is 50. In the assay with human CD20 antigen [2], this molecule displayed a Kd of 540 pM.

B7: 1K1402 murine anti CD20 monoclonal antibody (antibody, V domains shown)
VH: QVQLQQPGAELVKPGASVKMSCKASGFTFTSYNMHWVKQTPGQGLEWIGGIYPGNGDTSYNQKFKGKATLTADKSSSTAYMQLSSLTSEDSAVYYCARFYYYGSMGAMDYWGQGTSVTVSS
VL: B5 VL with D33H, S75T, T82A, S99A, I105L
notes: also called m1402
B7: the “Cell growth inhibiting test on Raji cells, Absorption (492 nm)” value with human CD20 antigen [3] amounted to 2.54 absorbance 492 nm. Further, in the assay with human CD20 antigen [4], the “Capacity to Induce Apoptosis” value worked out at 30. Also, the Kd with human CD20 antigen [2] came to 780 pM.
